According to patent publication US20030147861A1, “Compounds and methods for the modulation of immune responses” (Genesis Research and Development Corporation Limited, priority 2001, published 2003):

Key:
[1] = tested on: MAP kinase signaling pathway in THP-1 cells (IL-10 production); assay: AVAC-induced IL-10 production by THP-1 cells pre-treated with MAP kinase inhibitors (ELISA); format: cell-based, human; conditions: inhibitor pre-treatment 120 minutes; 25 μg/mL AVAC, 24 hours
Procedure: The involvement of the MAP kinase signaling pathway in the production of IL-10 by THP-1 cells in response to AVAC was assessed as follows.
Prior to culture with AVAC, 50 μL of THP-1 cells in cRPMI-10 were pre-treated in duplicate microplate wells with 50 μL of serially diluted PD98059 (Calbiochem cat. no. 51300, a selective inhibitor of MAP kinase), SB202190 (Calbiochem cat. no. 559388, an inhibitor of p38 MAP kinase and p38β MAP kinase), SB203580 (Calbiochem cat. no. 559389, a highly specific inhibitor of p38 MAP kinase), with SB202474 (Calbiochem cat. no. 559387, a negative control for MAP kinase inhibition studies), or with no added chemicals. MAP kinase inhibitors and control were used at a final concentration of 100 μg/mL, 20 μg/mL, 4.0 μg/mL, 0.8 μg/mL, 0.16 μg/mL, or […]. Pretreatment of cells with MAP kinase inhibitors and control was for 120 minutes in a water-jacketed, humidified incubator at 37° C. supplied with 5% CO2 in air.
Following pretreatment, the cells were washed once in cPRMI-10 to remove inhibitor or control chemicals. […] IL-10 content in the microculture supernatants was determined by sandwich ELISA using a commercially available set (eBioscience cat. no. 88-7106-77,) according to the manufacturer's recommendations. […]

[2] = tested on: CD40, CD80 and CD86 on dendritic cells; format: cell-based, human
[3] = tested on: CD69 on αβT cells, γδT cells and NK cells; format: cell-based, human
[4] = tested on: CD40, CD80 and CD86 on monocytes; assay: CD40, CD80 and CD86 expression on monocytes (3 color flow cytometry); format: cell-based, human; conditions: 20 ug/ml, 48 hours, vs non-stimulated cells
Excerpt: (§1) Stimulated cells were harvested and analyzed for up-regulation of CD40, CD80 and CD86 using 3 color flow cytometric analysis. Tables 16, 17 and 18 show the fold increase in mean fluorescence intensity from control (non-stimulated cells) for dendritic cells, monocytes, and B cells, respectively.

[5] = tested on: popliteal lymph node cells; assay: Proliferation of lymph node cells from GV protein-immunized mice; format: cell-based, female BALB/cByJ mice; conditions: lymph node cells of mice immunized with 10 μg of the same GV protein in IFA
Procedure: (§2) The immunogenicity of Mycobacterium vaccae recombinant proteins (referred to herein as GV recombinant proteins) was tested by injecting female BALB/cByJ mice in each hind foot-pad with 10 μg of recombinant GV proteins emulsified in incomplete Freund's adjuvant (IFA). Control mice received phosphate buffered saline in IFA. The draining popliteal lymph nodes were excised 10 days later and the cells obtained therefrom were stimulated with the immunizing GV protein and assayed for proliferation by measuring the uptake of tritiated thymidine. The amount of interferon gamma (IFNγ) produced and secreted by these cells into the culture supernatants was assayed by standard enzyme-linked immunoassay.

[6] = tested on: IL-1β, TNF-α, IL-12 and IFN-γ production in PBMC; assay: Cytokine production in PBMC from normal donors (ELISA); format: cell-based, human
[7] = tested on: CD40, CD80 and CD86 on B cells; assay: CD40, CD80 and CD86 expression on B cells (3 color flow cytometry); format: cell-based, human; conditions: 20 ug/ml, 48 hours, vs non-stimulated cells
Excerpt: as §1

[8] = tested on: IFNγ production by lymph node cells; assay: IFNγ production by lymph node cells from GV protein-immunized mice (enzyme-linked immunoassay); format: cell-based, female BALB/cByJ mice; conditions: lymph node cells of mice immunized with the same GV protein
Procedure: as §2

[9] = dendritic cells, 20 ug/ml, 48 hours, vs non-stimulated cells
[10] = Dose of GV protein used in vitro 0.08 μg/ml
[11] = Dose of GV protein used in vitro 2 μg/ml
[12] = Dose of GV protein used in vitro 50 μg/ml

With `C[S+]([O-])c1ccc(-c2nc(-c3ccncc3)c(-c3ccc(F)cc3)[nH]2)cc1` (stereo not drawn) [SB203580] the “suppression of AVAC-induced production of IL-10 by THP-1 cells” value [1] was “substantially suppressed in a dose-dependent manner”.

In the case of cholera toxin [reference compound], the “CD40, CD80 and CD86 expression in dendritic cells, comparison with adjuvants” value [2] is reported as “modest” and the “CD69 expression on NK cells, comparison with adjuvants” value [3] is reported as “did not”.

For `Oc1ccc(-c2nc(-c3ccncc3)c(-c3ccc(F)cc3)[nH]2)cc1` [SB202190], the “suppression of AVAC-induced production of IL-10 by THP-1 cells” value [1] was “substantially suppressed in a dose-dependent manner”.

B1: GV-45: recombinant M. vaccae antigen, amino acid sequence SEQ ID NO: 52 (protein, listed as Mycobacterium vaccae)
chain: MNKAELIDVLTEKLGSDRRQATAAVENVVDTIVRAVHKGESVTITGFGVFEQRRRAARVARNPRTGETVKVKPTSVPAFRPGAQFKAVVSGAQKLPAEGPAVKRGVTATSTARKAAKKAPAKKAAAKKAAPAKKAPAKKAATKAAPAKKATAAKKAAPAKKATAAKKAAPAKKAPAKKAATKAAPAKKAPAKKAATKAAPAKKAPAAKKAPAKKAPAKRGGRK
In the case of B1, the “CD40, CD80 and CD86 expression on dendritic cells” value ([2]; 20 ug/ml, 48 hours, T cell-depleted PBMC) is reported as “highest levels of expression”, the “CD40 expression, fold increase in mean fluorescence intensity from control” value (shortened to “CD40 expression, fold increase”) [2, 9] is reported as 5.8 fold and the “CD80 expression, fold increase in mean fluorescence intensity from control” value (“CD80 expression, fold increase” below) [2, 9] is reported as 3.0 fold. For the same molecule, the “CD86 expression, fold increase in mean fluorescence intensity from control” value (from here on “CD86 expression, fold increase”) [2, 9] was 3.1 fold, the “CD40 expression, fold increase” value [4] was 1.6 fold and the “CD80 expression, fold increase” value [4] was 1.2 fold. The “CD86 expression, fold increase” value [4] was 1.0 fold, the “Proliferation (cpm)” value [5, 10] was 1,497 ± 199 cpm and the “Proliferation (cpm)” value [5, 11] was 3,683 ± 1,127 cpm. For the same molecule, the “Proliferation (cpm)” value [5, 12] was 9,554 ± 482 cpm, the “production of IL-1β, TNF-α, IL-12 and IFN-γ by PBMC” value [6] was “stimulate the production of IL-1β, TNF-α and IL-12” and the “percentage of αβT cells expressing CD69” value ([3]; PBMC from normal donors, 20 ug/ml, 24 hours, control 3.8) was 11.7%. For the same molecule, the “percentage of NK cells expressing CD69” value ([3]; PBMC from normal donors, 20 ug/ml, 24 hours, control 4.8) was 6.3%, the “percentage of γδT cells expressing CD69” value ([3]; PBMC from normal donors, 20 ug/ml, 24 hours, control 6.2) was 4.9% and the “CD40 expression, fold increase” value [7] was 1.2 fold. The “CD80 expression, fold increase” value [7] was 1.1 fold and the “CD86 expression, fold increase” value [7] was 1.3 fold.

B2: GV-33: recombinant M. vaccae antigen, amino acid sequence SEQ ID NO: 44 (protein, listed as Mycobacterium vaccae)
chain: MVRAALRYGFGTASLLAGGFVLRALQGTPAALGATPGEVAPVARRSPNYRDGKFVNLEPPSGITMDRDLQRMLLRDLANAASQGKPPGPIPLAEPPKGDPTPAPAAASWYGHSSVLIEVDGYRVLADPVWSNRCSPSRAVGPQRMHDVPVPLEALPAVDAVVISHDHYDHLDIDTIVALAHTQRAPFVVPLGIGAHLRKWGVPEARIVELDWHEAHRIDDLTLVCTPARHFSGRLFSRDSTLWASWVVTGSSHKAFFGGDTGYTKSFAEIGDEYGPFDLTLLPIGAYHPAFADIHMNPEEAVRAHLDLTEVDNSLMVPIHWATFRLAPHPWSEPAERLLTAADAERVRLTVPIPGQRVDPESTFDPWWRF
With B2 the “Proliferation (cpm)” value [5, 10] was 8,764 ± 256 cpm, the “Proliferation (cpm)” value [5, 11] was 27,529 ± 1,238 cpm and the “Proliferation (cpm)” value [5, 12] was 41,529 ± 1,919 cpm. The “IFNγ” value [8, 11] was 1.52 ± 0.24 ng/mL, the “IFNγ” value ([8]; Dose of GV protein used in vitro 10 μg/ml) was 8.44 ± 2.35 ng/mL and the “IFNγ” value [8, 12] was 7.71 ± 0.26 ng/mL.

B3: GV-35: recombinant M. vaccae antigen, amino acid sequence SEQ ID NO: 45 (protein, listed as Mycobacterium vaccae)
chain: MKANHSGCYKSAGPIWSHPSPLCSPALAPSHAGLDNELSLGVHGQGPEHLTIQQWDTFLNGVFPLDRNRLTREWFHSGKATYVVAGEGADEFEGTLELGYHVGFPWSLGVGINFSYTTPNITYDGYGLNFADPLLGFGDSIVTPPLFPGVSITADLGNGPGIQEVATFSVDVAGPGGSVVVSNAHGTVTGAAGGVLLRPFARLISSTGDSVTTYGAPLKHELTTSRWRPPGVNRGPLHAGREAPEVRSKWPTAANACARDSSSLTQGLVVVECHPVTPPHRPRRDGRGSGVWAPALGTYGGDRRRDVTSVAVFAGNPDGPAESPHPSSEPGGSKEF
B3 was tested, and the “Proliferation (cpm)” value [5, 10] was 1,626 ± 406 cpm, the “Proliferation (cpm)” value [5, 11] was 9,968 ± 314 cpm and the “Proliferation (cpm)” value [5, 12] was 29,163 ± 2,693 cpm.
